For 1 molecule, Kd results are on record in PMC10866945 (2024).

In one experiment the target is Spike protein RBD (Severe acute respiratory syndrome …, UniProt P0DTC2). Briefly: ELISA. On the technique in general: An ELISA detects its analyte on a solid surface through an enzyme-linked reagent.
The next experiment addresses Spike protein NTD (Severe acute respiratory syndrome …, UniProt P0DTC2). Briefly: ELISA.

B1: Asialoglycoprotein receptor 1 (protein)
chain: MTKEYQDLQHLDNEESDHHQLRKGPPPPQPLLQRLCSGPRLLLLSLGLSLLLLVVVCVIGSQNSQLQEELRGLRETFSNFTASTEAQVKGLSTQGGNVGRKMKSLESQLEKQQKDLSEDHSSLLLHVKQFVSDLRSLSCQMAALQGNGSERTCCPVNWVEHERSCYWFSRSGKAWADADNYCRLEDAHLVVVTSWEEQKFVQHHIGPVNTWMGLHDQNGPWKWVDGTDYETGFKNWRPEQPDDWYGHGLGGGEDCAHFTDDGRWNDDVCQRPYRWVCETELDKASQEPPLL
On to B1, for which the equilibrium dissociation constant (Kd) in the experiment with Spike protein RBD came out at 269 nM; in the experiment with Spike protein NTD it was 179 nM.

A word on the Kd: it is the concentration at which binding is half-saturated. High values mean weaker binding, low ones tighter binding.
